Results: publication PMC11179147 (Nature, 2023)
Substitutions are numbered along the chain they refer to. In names and notes the source's numbering stands.

Assays:
[1] = biological target: full-length WT METTL1, unlabeled (without WDR4) (human, UniProt Q9UBP6 1-276); test: NMR titration
[2] = biological target: full-length R109A/K111A METTL1, unlabeled (human, UniProt Q9UBP6 1-276, R109A | K111A); test: NMR titration

B1: METTL1 1-75 (N-terminal segment of METTL1), isotope-labelled (domain or fragment, human, UniProt Q9UBP6 1-75, looked up)
chain: MAAETRNVAGAEAPPPQKRYYRQRAHSNPMADHTLRYPVKPEEMDWSELYPEFFAPLTQNQSHDDPKDKKEKRAQ
- binding result [1]: binds
- binding result [2]: binds

B2: S27D METTL1 1-75, isotope-labelled (domain or fragment, human, UniProt Q9UBP6 1-75, looked up)
chain: B1 chain with S27D
- binding result [1]: binds
